Results reported in paper PMC7895943 (Communications Biology, 2021).

Target: purified recombinant human α-synuclein (N-terminal histidine tagged) (human, UniProt P37840 1-140)
Assay: SPR; Biacore 3000; about 1500 RU of α-synuclein amine-coupled to a CM5 chip; peptides in two-fold dilutions (0.20-12.50 µM, in duplicate) injected 3 min at 30 µl/min, then 3 min dissociation; HBS pH 7.4 (10 mM HEPES, 150 mM NaCl, 3 mM EDTA, 0.005% P20); double-referenced; report points 20 s into dissociation (200 s)
Settings: both partners purified

B1: Tat-βsyn-degron peptide (peptide)
peptide: YGRKKRRQRRRRTKSGVYLVGRRRG
notes: Tat plasma membrane transduction domain (HIV-1 Tat stretch); degron, proteasomal targeting signal; also called α-synuclein knockdown peptide; α-synuclein targeting peptide; source: synthetic peptide (GL Biochem, Shanghai)
B1: binds.
